Key:
Test in all cases: cell-based or functional assay
[1] = molecular target: HIV-1 Env of pseudovirus Ce2060_G9 (HIV-1)
[2] = molecular target: HIV-1 Env of pseudovirus X1254_c3 (HIV-1)
[3] = molecular target: HIV-1 Env of pseudovirus 249M B10 (HIV-1)
[4] = molecular target: HIV-1 Env of pseudovirus SC05_8C11_2344 (HIV-1)
[5] = molecular target: HIV-1 Env of pseudovirus 1006_11_C3_1601 (HIV-1)
[6] = molecular target: HIV-1 Env of pseudovirus 3817.v2.c59 (HIV-1)
[7] = molecular target: HIV-1 Env of pseudovirus HIV-16055-2.3 (HIV-1)
[8] = molecular target: HIV-1 Env of pseudovirus ZM109F.PB4 (HIV-1)
[9] = molecular target: HIV-1 Env of pseudovirus 6041.v3.c23 (HIV-1)
[10] = molecular target: HIV-1 Env of pseudovirus 6535.3 (HIV-1)
[11] = molecular target: HIV-1 Env of pseudovirus CNE19 (HIV-1)
[12] = molecular target: HIV-1 Env of pseudovirus CAAN5342.A2 (HIV-1)
[13] = molecular target: HIV-1 Env of pseudovirus ZM233M.PB6 (HIV-1)
[14] = molecular target: HIV-1 Env of pseudovirus 620345.c01 (HIV-1)
[15] = molecular target: HIV-1 Env of pseudovirus RHPA4259.7 (HIV-1)
[16] = molecular target: HIV-1 Env of pseudovirus 191084 B7-19 (HIV-1)
[17] = molecular target: HIV-1 Env of pseudovirus 231966.c02 (HIV-1)
[18] = molecular target: HIV-1 Env of pseudovirus T255-34 (HIV-1)
[19] = molecular target: HIV-1 Env of pseudovirus 1054_07_TC4_1499 (HIV-1)
[20] = molecular target: HIV-1 Env of pseudovirus 9004SS_A3_4 (HIV-1)
[21] = molecular target: HIV-1 Env of pseudovirus CNE52 (HIV-1)
[22] = molecular target: HIV-1 Env of pseudovirus ZM247v1(Rev-) (HIV-1)
[23] = molecular target: HIV-1 Env of pseudovirus Ce1172_H1 (HIV-1)
[24] = molecular target: HIV-1 Env of pseudovirus 0815.v3.c3 (HIV-1)
[25] = molecular target: HIV-1 Env of pseudovirus 6244_13_B5_4576 (HIV-1)
[26] = molecular target: HIV-1 Env of pseudovirus MS208.A1 (HIV-1)
[27] = molecular target: HIV-1 Env of pseudovirus BJOX028000.10.3 (HIV-1)
[28] = molecular target: HIV-1 Env of pseudovirus AC10.0.29 (HIV-1)
[29] = molecular target: HIV-1 Env of pseudovirus R1166.c01 (HIV-1)
[30] = molecular target: HIV-1 Env of pseudovirus 62357_14_D3_4589 (HIV-1)
[31] = molecular target: HIV-1 Env of pseudovirus 231965.c01 (HIV-1)
[32] = molecular target: HIV-1 Env of pseudovirus 246F C1G (HIV-1)

B1: N49P23 (antibody, V domains shown)
VH: QVRLVQSGAGARKTGASMKLSCSTSGYTFTTHHGHFINWVRQARGQGLEWMGWMNPMTGQMNIEGKFQGRVTLTRDIYSDTAYMEMTRLTTGDTGTYYCARGDFGQNYPFHYWGQGSLVIVSS
VL: LSALTQPASVSGSPGQSVTISCSGTNRYLVSWYQQHPDKAPKLIIYDDNKRPSGISDRFSASRPDDTASLTISGLQTGDEATYWCASYERFGGGTRLTVLS
IC50 [1]: 0.18 µg/mL
IC80 [1]: 0.849 µg/mL
MPI [1]: 99
IC50 [2]: 0.022 µg/mL
IC80 [2]: 0.111 µg/mL
MPI [2]: 100
IC50 [3]: > 50 µg/mL
IC80 [3]: > 50 µg/mL
MPI [3]: 20
IC50 [4]: 0.133 µg/mL
IC80 [4]: 0.548 µg/mL
MPI [4]: 100
IC50 [5]: 0.015 µg/mL
IC80 [5]: 0.054 µg/mL
MPI [5]: 100
IC50 [6]: > 50 µg/mL
IC80 [6]: > 50 µg/mL
MPI [6]: 41
IC50 [7]: > 50 µg/mL
IC80 [7]: > 50 µg/mL
MPI [7]: 17
IC50 [8]: 0.039 µg/mL
IC80 [8]: 0.18 µg/mL
MPI [8]: 100
IC50 [9]: 7.47 µg/mL
IC80 [9]: > 50 µg/mL
MPI [9]: 63
IC50 [10]: 0.127 µg/mL
IC80 [10]: 0.855 µg/mL
MPI [10]: 100
IC50 [11]: > 50 µg/mL
IC80 [11]: > 50 µg/mL
MPI [11]: 40
IC50 [12]: 0.412 µg/mL
IC80 [12]: 1.38 µg/mL
MPI [12]: 100
IC50 [13]: > 50 µg/mL
IC80 [13]: > 50 µg/mL
MPI [13]: 14
IC50 [14]: > 50 µg/mL
IC80 [14]: > 50 µg/mL
MPI [14]: 0
IC50 [15]: 0.01 µg/mL
IC80 [15]: 0.04 µg/mL
MPI [15]: 100
IC50 [16]: 0.013 µg/mL
IC80 [16]: 0.043 µg/mL
MPI [16]: 100
IC50 [17]: 0.035 µg/mL
IC80 [17]: 0.158 µg/mL
MPI [17]: 100
IC50 [18]: > 50 µg/mL
IC80 [18]: > 50 µg/mL
MPI [18]: 20
IC50 [19]: 0.272 µg/mL
IC80 [19]: 1.21 µg/mL
MPI [19]: 100
IC50 [20]: 0.043 µg/mL
IC80 [20]: 0.223 µg/mL
MPI [20]: 100
IC50 [21]: 0.014 µg/mL
IC80 [21]: 0.051 µg/mL
MPI [21]: 100
IC50 [22]: > 50 µg/mL
IC80 [22]: > 50 µg/mL
MPI [22]: 24
IC50 [23]: > 50 µg/mL
IC80 [23]: > 50 µg/mL
MPI [23]: 0
IC50 [24]: 0.004 µg/mL
IC80 [24]: 0.014 µg/mL
MPI [24]: 100
IC50 [25]: 0.151 µg/mL
IC80 [25]: 0.57 µg/mL
MPI [25]: 100
IC50 [26]: 0.048 µg/mL
IC80 [26]: 0.279 µg/mL
MPI [26]: 100
IC50 [27]: 0.021 µg/mL
IC80 [27]: 0.123 µg/mL
MPI [27]: 98
IC50 [28]: > 50 µg/mL
IC80 [28]: > 50 µg/mL
MPI [28]: 0
IC50 [29]: 0.123 µg/mL
IC80 [29]: 0.455 µg/mL
MPI [29]: 100
IC50 [30]: 0.057 µg/mL
IC80 [30]: 0.76 µg/mL
MPI [30]: 95
IC50 [31]: > 50 µg/mL
IC80 [31]: > 50 µg/mL
MPI [31]: 35
IC50 [32]: > 50 µg/mL
IC80 [32]: > 50 µg/mL
MPI [32]: 11

B2: N49P22 (antibody, V domains shown)
V domain 1: HIQLLQSGPQVKKSGDTVRISCETSGYNFVDSRIHWVRQTPEKRLRWMGWINPLQGGVNYAPEFQGRIRMTRDTFIDTVYVDLSGLTPADTAYYYCARGIDGKSYPFHFWGHGTRVTVFS
V domain 2: RFALTQPASVSGSPGQTITITCAGGSVSWFHFPPGKTPRLIIYESSKRPSGVSPRFSGSQSGSTASLIISGLQSDDEGTYFCSILEFFGRGTLVTVLS
IC50 [1]: > 50 µg/mL
IC80 [1]: > 50 µg/mL
MPI [1]: 19
IC50 [2]: 3.06 µg/mL
IC80 [2]: 29.8 µg/mL
MPI [2]: 84
IC50 [3]: > 50 µg/mL
IC80 [3]: > 50 µg/mL
MPI [3]: 4
IC50 [4]: 0.251 µg/mL
IC80 [4]: 2.16 µg/mL
MPI [4]: 97
IC50 [5]: 0.898 µg/mL
IC80 [5]: 14.7 µg/mL
MPI [5]: 83
IC50 [6]: > 50 µg/mL
IC80 [6]: > 50 µg/mL
MPI [6]: 12
IC50 [7]: 4.66 µg/mL
IC80 [7]: 39.7 µg/mL
MPI [7]: 83
IC50 [8]: > 50 µg/mL
IC80 [8]: > 50 µg/mL
MPI [8]: 1
IC50 [9]: 7.55 µg/mL
IC80 [9]: > 50 µg/mL
MPI [9]: 66
IC50 [10]: > 50 µg/mL
IC80 [10]: > 50 µg/mL
MPI [10]: 5
IC50 [11]: 0.873 µg/mL
IC80 [11]: 8.19 µg/mL
MPI [11]: 92
IC50 [12]: 0.425 µg/mL
IC80 [12]: 1.88 µg/mL
MPI [12]: 99
IC50 [13]: > 50 µg/mL
IC80 [13]: > 50 µg/mL
MPI [13]: 2
IC50 [14]: > 50 µg/mL
IC80 [14]: > 50 µg/mL
MPI [14]: 0
IC50 [15]: 0.637 µg/mL
IC80 [15]: 5.6 µg/mL
MPI [15]: 92
IC50 [16]: 0.343 µg/mL
IC80 [16]: 1.64 µg/mL
MPI [16]: 98
IC50 [17]: 3.35 µg/mL
IC80 [17]: > 50 µg/mL
MPI [17]: 69
IC50 [18]: 38.8 µg/mL
IC80 [18]: > 50 µg/mL
MPI [18]: 55
IC50 [19]: 0.654 µg/mL
IC80 [19]: 2.89 µg/mL
MPI [19]: 100
IC50 [20]: > 50 µg/mL
IC80 [20]: > 50 µg/mL
MPI [20]: 42
IC50 [21]: 1.7 µg/mL
IC80 [21]: 10 µg/mL
MPI [21]: 91
IC50 [22]: > 50 µg/mL
IC80 [22]: > 50 µg/mL
MPI [22]: 11
IC50 [23]: > 50 µg/mL
IC80 [23]: > 50 µg/mL
MPI [23]: 0
IC50 [24]: 0.161 µg/mL
IC80 [24]: 1.08 µg/mL
MPI [24]: 98
IC50 [25]: 0.565 µg/mL
IC80 [25]: 2.48 µg/mL
MPI [25]: 97
IC50 [26]: > 50 µg/mL
IC80 [26]: > 50 µg/mL
MPI [26]: 17
IC50 [27]: > 50 µg/mL
IC80 [27]: > 50 µg/mL
MPI [27]: 0
IC50 [28]: > 50 µg/mL
IC80 [28]: > 50 µg/mL
MPI [28]: 0
IC50 [29]: 0.232 µg/mL
IC80 [29]: 0.799 µg/mL
MPI [29]: 100
IC50 [30]: > 50 µg/mL
IC80 [30]: > 50 µg/mL
MPI [30]: 13
IC50 [31]: 2.04 µg/mL
IC80 [31]: 35.2 µg/mL
MPI [31]: 83
IC50 [32]: > 50 µg/mL
IC80 [32]: > 50 µg/mL
MPI [32]: 10

— US20230002480A1
